The data set can be described thus: soluble on expression in E. coli; label from the status in PepcDB or PDB records.
Regarding “MNKTNQIVDLLTNKQNNSIQRRDNLVFVKNEQEFKDILDSTISLSNVYDPLLGNGCEQEKIKELTILNNSVDISKIEEYTKTLESKVDDLYNNVSNQLIQDYQKNENTSANNIIMKNEELLNSHLKEVEKICEQLIDEWKIEILGEVNFKFQQQLIEIDQKQEHKLKVKSLINEDSFLTKRQVKNKNKILTEFEKHRSQITQNYLNKRSDILKKEYDELLKDDKLFELSSGDNWNNFKKITLFISNEIGIINDLEDLLNHQELIRTRNYTKRAILNQHHINGHFKDEKKYLKSLYDLRVKFMYGLGSEIVILKFLIEHYKKLNSLRLRLETLNHPLSNYAVYFDILNRIEKQTQLLAKIETLKYDNYDFNADVILDDLESNITKINEIKHNSNVLNKTKVIKTIIEPKYELELISKDDKVDGVKVYVNDQEILSKLEHHHHHH”, the “soluble on expression in E. coli” value is given as “not soluble”.
In the case of “MSLYRLLIVEDEHLIRKWLRYAIDYQSLNILVVGEAKDGKEGAQLIQEEQPDIVLSDINMPIMTAFDMFEATKGQSYAKIILSGYADFPNAQSAIHYGVLEFLTKPLEKQALIDCLKTIMARIEEHKEKHLQEHTELYLPLPQANDQVPEVIKDMLAWIHSHFHGKIVISQLAHDLGYSESYLYTVTKKHLHITLSDYINQYRINQAIQLMFREPDLMVYQIAEAVGIYDYRYFDRVFKKYLGQTVKAFKEEHIFKQMDEGHHHHHH”, the “soluble on expression in E. coli” value is “soluble”.
Take “GHMKIVLKIFHAGSLSVPFEEYEKMFEKEHPNVDVEREPAGSVACVRKIIDLGKKADILASADYSLIPQMMMPKYADWYVMFARNEIVLAYTDKSKYKDEINSTNWYKILQRPDVKIGFSNPNDDPCGYRTQMVLQLAELYYKDPTIYDNLVLKHSNIKVEENNGTYLILVPKELDVDTNKLFVRSKETDLLAPLEAGAFDYLFIYKSVANQHHLKYIELPKEINLGYYEYADTYKKVALKIIAKNKTINAKPIVYGMTVPTNAPHKKEAIEFVKFVLGHPEVLENNGQPAI”: the “soluble on expression in E. coli” value is recorded as “soluble”.
With “MSLSAADMTQTIKTLALNVRLSCELLGVPESSYYERINRRPSETQLRRQHLTLKIVQLFKANRGIYGAPKIHHLLLDKEEKVGVKLVQKIMQQLQLKSVVLKKFKPGYSASDGINRKNLVQNEPTERNKVWSTDITYIPTQQGWAYLSTIMDRYTKKVIAWDLGKRMTVELVQRTLNKAIKSQDYPEAVILHSDQGSQYTSLEYEELLKYYGMTHSFSRRGYPYHNASLESWHGYLKREWVYQFKYKNFEEAYQSIFWYIEAFYNSKRIHQSLGYLTPNQFEKVSAEGHHHHHH”, the “soluble on expression in E. coli” value was “not soluble”.
With “MVKVGIIGGSGLEDPNILLDPVTVAVDTPYGKPSDDVVEGTINGVECVLLARHGRKHDIMPGNVNFRANLWALYSRGVDVIIASTACGSLQENVEPGHLLFPDSVFDRTTGRQSTFFDGSYDQAPGVCHIQAHPTYNEKLRQVLISTAERCQLVHHRTGFGVCIEGPRFSTKAESMVFKSWGASLVNMTMMPECILAKELGIPYATTALVTDYDCWKEEDHVTASSVMKVFAANVEKAKTLFVEAVGEIGKIDWSAEILKLKTEARESVMISPDVVIPFLTTDNQKKF” the entry was “not soluble”.
Turning to “MNEKVFRDPVHNYIHIDNPLIYDLINTKEFQRLRRIKQVPTTAFTFHGAEHSRFSHCLGVYEIARRVTAIFEEKYADIWNKDESLVTMTAALLHDIGHGAYSHTFEVLFHTDHEAFTQEIITNPETEINAILVRHAPDFPDKVASVINHTYPNKQVVQLISSQIDCDRMDYLLRDSYFSAANYGQFDLMRILRVIRPVEDGIVFEHSGMHAVEDYIVSRFQMYMQVYFHPASRAVELILQNLLKRAQHLYPEQQAYFQKTAPGLIPFFEKKANLADYIALDDGVMNTYFQVWMASEDHILSDLASRFINRKILKSVTFDQDSQGELERLRQLVESVGFDPDYYTGIHINFDLPYDIYRPELENPRTQIEMMQKDGSLAELSQLSPIVKALTGTTYGDRRFYFPKEMLELDDLFAPSKETFMSYISNGHFHFSQ”, the “soluble on expression in E. coli” value was “not soluble”.
With “VTAHSIARRFGAPIETLARAADRIGEGDFDVTLPMTNVAEVGQLTRRFGLMAEALRQYRKTSVEEVLSGERRLQAVLDSIDDGLVIFDNQGRIEHANPVAIRQLFVSNDPHGKRIDEILSDVDVQEAVEKALLGEVQDEAMPDLVVDVAGESRLLAWSLYPVTHPGGHSVGAVLVVRDVTEQRAFERVRSEFVLRASHELRTPVTGMQMAFSLLRERLDFPAESREADLIQTVDEEMSRLVLLINDLLNFSRYQTGMQKLELASCDLVDLLTQAQQRFIPKGEARRVSLQLELGDELPRLQLDRLQIERVIDNLLENALRHSSEGGQIHLQARRQGDRVLIAVEDNGEGIPFSQQGRIFEPFVQVGRKKGGAGLGLALCKEIIQLHGGRIAVRSQPGQGARFYMLLP” the entry was “not soluble”.

The values are drawn from the DeepSol protein solubility set.
